{"source": "the supplement of paper PMC11908140", "parents": {"B1": {"name": "library; numbered along this chain (parent)", "chain": "MRKPRAAVGSGHRKQAASQEGRQKHAKNNSQAKPSACDGLARQPEEVVLQASVSSYHLFRDVAEVTAFRGSLLSWYDQEKRDLPWRRRAEDEMDLDRRAYAVWVSEVMLQQTQVATVINYYTGWMQKWPTLQDLASASLEEVNQLWAGLGYYSRGRRLQEGARKVVEELGGHMPRTAETLQQLLPGVGRYTAGAIASIAFGQATGVVDGNVARVLCRVRAIGADPSSTLVSQQLWGLAQQLVDPARPGDFNQAAMELGATVCTPQRPLCSQCPVESLCRARQRVEQEQLLASGSLSGSPDVEECAPNTGQCHLCLPPSEPWDQTLGVVNFPRKASRKPPREESSATCVLEQPGALGAQILLVQRPNSGLLAGLWEFPSVTWEPSEQLQRKALLQELQRWAGPLPATHLRHLGEVVHTFSHIKLTYQVYGLALEGQTPVTTVPPGARWLTQEEFHTAAVSTAMKKVFRVYQGQQPGTCMGSKRSQVSSPCSRKKPRMGQQVLDNFFRSHISTDAHSLNSAAQ"}}}
{"variants_of": "B1", "assay": "8OG:A repair function score (normalized; synonymous = 0, nonsense = -1) (normalized log-likelihood score); higher = more repair activity (WT-like)", "conditions": "with 8OG:A DNA repair reporter (GFP) in HEK-293 MUTYH KO cells", "how_it_was_run": "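With 10 pg/ml doxycycline, MUTYH knockout HEK-293 cells carrying lentiviral MUTYH cDNA NNN codon-scan libraries were co-transfected with mCherry and an 8OG:A GFP repair reporter. Viable mCherry+ cells were sorted into GFP+ (repair) and GFP− bins at 72 h, three replicates per tile, and tile amplicons were sequenced. Per-tile Rosace fitness scores were then normalized into a repair function score anchored on synonymous and nonsense distributions. Medians were fixed at 0 for synonymous and -1 for nonsense, excluding variants under 300 counts per million at the start.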"}
{"variant": "MRKPRAAVGSGHRKQAASQEGRQKHAKNNSQAKPSACDGLARQPEEVVLQASVSSYHLFRDVAEVTAFRGSLLSWYDQEKRDLPWRRRAEDEMDLDRRAYAVWVSEVMLQQTQVATVINYYTGWMQKWPTLQDLASASLEEVNQLWAGLGYYSRGRRLQEGARKVVEELGGHMPRTAETLQQLLPGVGRYTAGAIASIAFGQATGVVDGNVARVLCRVRAIGADPSSTLVSQQLWGLAQQLVDPARPGDFNQAAMELGATVCTPQRPLCSQCPVESLCRARQRVEQEQLLASGSLSGSPDVEECAPNTGQCHLCLPPSEPWDQTLGVVNFPRKASRKPPREESSATCVLEQPGALGAQILLVQRPNSGLLAGLWEFPSVTWEPSEQLQRKALLQELQRWAGPLPATHLRHLGEVVHTFSHIKLTYQVYGLALEGQTPVTTVPPGARWLTQEEFHTAAVSTAMKKVFRVYQGQQPGTCMGSKRSQVSSPCSRKKPRMGQQVLDNFFRSHISTDAHSLNSADQ", "note": "[A520D]", "8OG:A repair function score": -0.0192}
{"variant": "MRKPRAAVGSGHRKQAASQEGRQKHAKNNSQAKPSACDGLARQPEEVVLQASVSSYHLFRDVAEVTAFRGSLLSWYDQEKRDLPWRRRAEDEMDLDRRAYAVWVSEVMLQQTQVATVINYYTGWMQKWPTLQDLASASLEEVNQLWAGLGYYSRGRRLQEGARKVVEELGGHMPRTAETLQQLLPGVGRYTAGAIASIAFGQATGVVDGNVARVLCRVRAIGADPSSTLVSQQLWGLAQQLVDPARPGDFNQAAMELGATVCTPQRPLCSQCPVESLCRARQRVEQEQLLASGSLSGSPDVEECAPNTGQCHLCLPPSEPWDQTLGVVNFPRKASRKPPREESSATCVLEQPGALGAQILLVQRPNSGLLAGLWEFPSVTWEPSEQLQRKALLQELQRWAGPLPATHLRHLGEVVHTFSHIKLTYQVYGLALEGQTPVTTVPPGARWLTQEEFHTAAVSTAMKKVFRVYQGQQPGTCMGSKRSQVSSPCSRKKPRMGQQVLDNFFRSHISTDAHSLNSACQ", "note": "[A520C]", "8OG:A repair function score": -0.000175}
{"variant": "MRKPRAAVGSGHRKQAASQEGRQKHAKNNSQAKPSACDGLARQPEEVVLQASVSSYHLFRDVAEVTAFRGSLLSWYDQEKRDLPWRRRAEDEMDLDRRAYAVWVSEVMLQQTQVATVINYYTGWMQKWPTLQDLASASLEEVNQLWAGLGYYSRGRRLQEGARKVVEELGGHMPRTAETLQQLLPGVGRYTAGAIASIAFGQATGVVDGNVARVLCRVRAIGADPSSTLVSQQLWGLAQQLVDPARPGDFNQAAMELGATVCTPQRPLCSQCPVESLCRARQRVEQEQLLASGSLSGSPDVEECAPNTGQCHLCLPPSEPWDQTLGVVNFPRKASRKPPREESSATCVLEQPGALGAQILLVQRPNSGLLAGLWEFPSVTWEPSEQLQRKALLQELQRWAGPLPATHLRHLGEVVHTFSHIKLTYQVYGLALEGQTPVTTVPPGARWLTQEEFHTAAVSTAMKKVFRVYQGQQPGTCMGSKRSQVSSPCSRKKPRMGQQVLDNFFRSHISTDAHSLNSAEQ", "note": "[A520E]", "8OG:A repair function score": 0.0123}
{"variant": "MRKPRAAVGSGHRKQAASQEGRQKHAKNNSQAKPSACDGLARQPEEVVLQASVSSYHLFRDVAEVTAFRGSLLSWYDQEKRDLPWRRRAEDEMDLDRRAYAVWVSEVMLQQTQVATVINYYTGWMQKWPTLQDLASASLEEVNQLWAGLGYYSRGRRLQEGARKVVEELGGHMPRTAETLQQLLPGVGRYTAGAIASIAFGQATGVVDGNVARVLCRVRAIGADPSSTLVSQQLWGLAQQLVDPARPGDFNQAAMELGATVCTPQRPLCSQCPVESLCRARQRVEQEQLLASGSLSGSPDVEECAPNTGQCHLCLPPSEPWDQTLGVVNFPRKASRKPPREESSATCVLEQPGALGAQILLVQRPNSGLLAGLWEFPSVTWEPSEQLQRKALLQELQRWAGPLPATHLRHLGEVVHTFSHIKLTYQVYGLALEGQTPVTTVPPGARWLTQEEFHTAAVSTAMKKVFRVYQGQQPGTCMGSKRSQVSSPCSRKKPRMGQQVLDNFFRSHISTDAHSLNSAHQ", "note": "[A520H]", "8OG:A repair function score": -0.0164}
{"variant": "MRKPRAAVGSGHRKQAASQEGRQKHAKNNSQAKPSACDGLARQPEEVVLQASVSSYHLFRDVAEVTAFRGSLLSWYDQEKRDLPWRRRAEDEMDLDRRAYAVWVSEVMLQQTQVATVINYYTGWMQKWPTLQDLASASLEEVNQLWAGLGYYSRGRRLQEGARKVVEELGGHMPRTAETLQQLLPGVGRYTAGAIASIAFGQATGVVDGNVARVLCRVRAIGADPSSTLVSQQLWGLAQQLVDPARPGDFNQAAMELGATVCTPQRPLCSQCPVESLCRARQRVEQEQLLASGSLSGSPDVEECAPNTGQCHLCLPPSEPWDQTLGVVNFPRKASRKPPREESSATCVLEQPGALGAQILLVQRPNSGLLAGLWEFPSVTWEPSEQLQRKALLQELQRWAGPLPATHLRHLGEVVHTFSHIKLTYQVYGLALEGQTPVTTVPPGARWLTQEEFHTAAVSTAMKKVFRVYQGQQPGTCMGSKRSQVSSPCSRKKPRMGQQVLDNFFRSHISTDAHSLNSAFQ", "note": "[A520F]", "8OG:A repair function score": 0.00424}
{"variant": "MRKPRAAVGSGHRKQAASQEGRQKHAKNNSQAKPSACDGLARQPEEVVLQASVSSYHLFRDVAEVTAFRGSLLSWYDQEKRDLPWRRRAEDEMDLDRRAYAVWVSEVMLQQTQVATVINYYTGWMQKWPTLQDLASASLEEVNQLWAGLGYYSRGRRLQEGARKVVEELGGHMPRTAETLQQLLPGVGRYTAGAIASIAFGQATGVVDGNVARVLCRVRAIGADPSSTLVSQQLWGLAQQLVDPARPGDFNQAAMELGATVCTPQRPLCSQCPVESLCRARQRVEQEQLLASGSLSGSPDVEECAPNTGQCHLCLPPSEPWDQTLGVVNFPRKASRKPPREESSATCVLEQPGALGAQILLVQRPNSGLLAGLWEFPSVTWEPSEQLQRKALLQELQRWAGPLPATHLRHLGEVVHTFSHIKLTYQVYGLALEGQTPVTTVPPGARWLTQEEFHTAAVSTAMKKVFRVYQGQQPGTCMGSKRSQVSSPCSRKKPRMGQQVLDNFFRSHISTDAHSLNSAGQ", "note": "[A520G]", "8OG:A repair function score": 0.00375}
